Measurements reported in patent US9683988B2, “Cell model and method for screening c-Fms kinase inhibitors” (Institute of Pharmacology and Toxicology Academy of …, priority 2011, dated 2017).

How the values were obtained:
[1] = target: T1, c-Fms kinase in the U2OS-GFP-STAT1/CSF-1R cells (Homo sapiens, UniProt P07333); test: Dose-effect of hrM-CSF inducing GFP-STAT1 nuclear translocation in U2OS-GFP-STAT1/CSF-1R cells; format: cell-based; settings: 30 minutes
T1 construct: comprising full-length cDNA of human c-Fms; expressed in transfected cells; host or cells: human osteosarcoma U2OS cells stably expressing GFP-STAT1 (U2OS-GFP-STAT1/CSF-1R)
T1 sequence (P07333 20-972): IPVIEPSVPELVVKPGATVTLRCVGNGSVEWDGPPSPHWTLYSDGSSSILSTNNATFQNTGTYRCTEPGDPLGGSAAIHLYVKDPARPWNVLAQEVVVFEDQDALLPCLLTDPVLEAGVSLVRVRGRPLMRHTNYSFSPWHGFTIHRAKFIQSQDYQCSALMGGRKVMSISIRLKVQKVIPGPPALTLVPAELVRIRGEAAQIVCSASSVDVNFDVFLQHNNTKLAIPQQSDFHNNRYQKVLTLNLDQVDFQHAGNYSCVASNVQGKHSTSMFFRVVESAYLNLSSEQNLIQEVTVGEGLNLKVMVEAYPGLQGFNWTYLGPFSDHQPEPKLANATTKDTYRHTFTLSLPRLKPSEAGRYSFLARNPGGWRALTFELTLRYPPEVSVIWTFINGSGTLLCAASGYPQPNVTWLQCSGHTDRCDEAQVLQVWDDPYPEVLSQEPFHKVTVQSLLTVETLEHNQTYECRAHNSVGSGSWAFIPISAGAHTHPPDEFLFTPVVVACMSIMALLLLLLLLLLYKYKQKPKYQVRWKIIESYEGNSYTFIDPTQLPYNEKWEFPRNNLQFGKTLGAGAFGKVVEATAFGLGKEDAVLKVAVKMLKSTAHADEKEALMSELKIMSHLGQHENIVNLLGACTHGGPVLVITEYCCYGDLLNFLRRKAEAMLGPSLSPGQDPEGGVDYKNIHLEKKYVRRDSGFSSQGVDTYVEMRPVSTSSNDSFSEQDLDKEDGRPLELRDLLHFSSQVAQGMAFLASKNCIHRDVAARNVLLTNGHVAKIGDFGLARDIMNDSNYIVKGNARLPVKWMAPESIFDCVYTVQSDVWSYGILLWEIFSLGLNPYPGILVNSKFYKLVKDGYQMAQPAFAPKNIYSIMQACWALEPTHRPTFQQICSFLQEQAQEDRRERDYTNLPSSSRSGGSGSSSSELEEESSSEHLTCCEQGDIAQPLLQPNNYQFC
Experimental: In order to quantitatively detect the extent of nuclear translocation of GFP-STAT1 induced by hrM-CSF, in this Example, in Cell Analyzer 1000 or In Cell Analyzer 2000 was used to obtain the cell image of GFP-STAT1 nuclear translocation. The cell image obtained was analyzed by using Nuclear Trafficking Analysis Module, wherein the translocation index represents the extent of nuclear translocation of GFP-STAT1. Translocation index equals to the ratio of the mean fluorescence intensity of nucleus to the mean fluorescence intensity of cytoplasm of the cells obtained per well. The steps were as follows: • 1) seeding the cells to a 96-well culture plate (which was black and transparent at the bottom), culturing in an incubator at 37° C., 5% CO2, 80% humidity for 24 hours; • 2) washing the cell twice with serum-free DMEM medium that contains 4500 mg/L glucose, 4 mM L-glutamine, 0.2% BSA and 10 mM HEPES (hereafter referred to as cell analytic liquid), wherein the cell analytic liquid was added at 100 μL/well for each time; after that, adding 50 μL cell analytic liquid to each well; • 3) adding the cell analytic liquid that contains hrM-CSF at 50 μL/well, […], and incubating the cells in an incubator at 37° C. for 30 minutes; • 4) fixing the cells with 8% formaldehyde diluted with 1×PBS solution and preheated at 37° C. at 100 μL/well, and placing the plate in dark at room temperature for 20 minutes; • 5) discarding the cell fixation solution, adding 1×PBS solution that contains hoechst33342 at 200 μL/well, placing the plate in dark at room temperature for 30 minutes; • 6) obtaining the cell image by using In Cell Analyzer 1000, analyzing the extent of nuclear translocation of GFP-STAT1 by using Nuclear Trafficking Analysis Module. […]

[2] = target: T1, c-Fms kinase in the U2OS-GFP-STAT1/CSF-1R cells; test: Effect of the time for treating cells with hrM-CSF on GFP-STAT1 nuclear translocation; format: cell-based; settings: 200 ng/mL hrM-CSF; 0-60 minutes
Experimental: The steps were as follows: • 1) using the cells prepared in the example 1 to prepare a cell suspension of 1×10^5 cells/mL, seeding the cells to a 96-well culture plate (which was black and transparent at the bottom) at 100 μL/well; and culturing the cells in an incubator at 37° C., 5% CO2, 80% humidity for 24 hours; • 2) washing the cells twice with the cell analytic liquid at 100 μL/well for each time, discarding the solution, and adding the cell analytic liquid at 50 μL/well; • 3) adding hrM-CSF diluted with the cell analytic liquid every 5 minutes, to obtain a final concentration of 200 ng/mL, setting the cell analytic liquid containing no hrM-CSF as the control, incubating the cells in an incubator at 37° C., and treating the cells with the cytokine for 0, 5, 10, 15, 20, 25, 30, 35, 40, 45, 50, 55, 60 minutes, respectively; • 4) adding the cell fixation solution preheated at 37° C. at 100 μL/well, slightly shaking the culture plate to mix the mixture uniformly, and placing the plate in dark at room temperature for 20 minutes; • 5) discarding the solution, adding 1×PBS solution that contains hoechst33342 at 200 μL/well, and placing the plate in dark at room temperature for 30 minutes; and • 6) obtaining the cell image by using In Cell Analyzer 2000, and analyzing the extent of nuclear translocation of GFP-STAT1 by using Nuclear Trafficking Analysis Module.

B1: hrM-CSF: recombinantly expressed human M-CSF (macrophage colony stimulating factor), ligand activating c-Fms (protein, UniProt P09603 33-554, looked up)
Macrophage colony-stimulating …: EEVSEYCSHMIGSGHLQSLQRLIDSQMETSCQITFEFVDQEQLKDPVCYLKKAFLLVQDIMEDTMRFRDNTPNAIAIVQLQELSLRLKSCFTKDYEEHDKACVRTFYETPLQLLEKVKNVFNETKNLLDKDWNIFSKNCNNSFAECSSQDVVTKPDCNCLYPKAIPSSDPASVSPHQPLAPSMAPVAGLTWEDSEGTEGSSLLPGEQPLHTVDPGSAKQRPPRSTCQSFEPPETPVVKDSTIGGSPQPRPSVGAFNPGMEDILDSAMGTNWVPEEASGEASEIPVPQGTELSPSRPGGGSMQTEPARPSNFLSASSPLPASAKGQQPADVTGTALPRVGPVRPTGQDWNHTPQKTDHPSALLRDPPEPGSPRISSLRPQGLSNPSTLSAQPQLSRSHSSGSVLPLGELEGRRSTRDRRSPAEPEGGPASEGAARPLPRFNSVPLTDTGHERQSEGSFSPQLQESVFHLLVPSVILVLLAVGGLLFYRWRRRSHQEPQRADSPLEQPEGSPLTQDDRQVELPV
concentration of hrM-CSF at which extent of nuclear translocation of GFP-STAT1 reached the maximum [1]: 600 ng/mL | concentration of hrM-CSF at which nuclear translocation of GFP-STAT1 began [1]: 10 ng/mL | median effective concentration (EC50) of hrM-CSF for inducing GFP-STAT1 nuclear translocation ([1]; n=6): 0.0435 ± 0.00368 µg/mL | treatment time at which extent of GFP-STAT1 nuclear translocation reached the maximum [2]: 30 min
